Patent publication US20050048070A1 (published 2005)

Columns and labels:
Test in all cases: Western blot of SDS-PAGE-separated K8 GST fusion proteins, stained with COU-1 alone
[1] = target: T1, K8 (1-85)
T1 construct: also called K8(1-85) GST fusion protein; not shown: N-terminal GST carrier (modified pGEX-2T) and its linker
T1 chain: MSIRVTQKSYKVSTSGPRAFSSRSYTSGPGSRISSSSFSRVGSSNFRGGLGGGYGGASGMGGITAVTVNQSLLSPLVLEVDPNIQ

[2] = target: T2, K8 (1-367)
T2 construct: not shown: N-terminal GST and its linker (modified pGEX-2T)
T2 chain: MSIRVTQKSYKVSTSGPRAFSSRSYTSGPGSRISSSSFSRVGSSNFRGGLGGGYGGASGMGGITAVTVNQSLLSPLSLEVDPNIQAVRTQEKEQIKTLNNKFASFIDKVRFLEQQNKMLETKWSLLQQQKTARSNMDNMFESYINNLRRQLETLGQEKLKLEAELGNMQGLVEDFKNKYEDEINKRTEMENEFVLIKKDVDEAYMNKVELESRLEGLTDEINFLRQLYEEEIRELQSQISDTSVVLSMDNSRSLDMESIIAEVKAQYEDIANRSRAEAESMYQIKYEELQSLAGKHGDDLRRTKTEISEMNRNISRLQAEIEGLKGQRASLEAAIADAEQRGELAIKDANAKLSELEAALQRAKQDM

[3] = target: T3, K8(1-65) GST fusion protein (human, UniProt P05787 2-66)
T3 construct: Alone, not complexed; not shown: glutathione S-transferase (GST) fusion partner, modified pGEX-2T vector
T3 sequence: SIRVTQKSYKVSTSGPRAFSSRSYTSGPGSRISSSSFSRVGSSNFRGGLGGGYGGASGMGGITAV

[4] = target: T4, K8 (1-383)
T4 construct: not shown: N-terminal GST and its linker (modified pGEX-2T)
T4 chain: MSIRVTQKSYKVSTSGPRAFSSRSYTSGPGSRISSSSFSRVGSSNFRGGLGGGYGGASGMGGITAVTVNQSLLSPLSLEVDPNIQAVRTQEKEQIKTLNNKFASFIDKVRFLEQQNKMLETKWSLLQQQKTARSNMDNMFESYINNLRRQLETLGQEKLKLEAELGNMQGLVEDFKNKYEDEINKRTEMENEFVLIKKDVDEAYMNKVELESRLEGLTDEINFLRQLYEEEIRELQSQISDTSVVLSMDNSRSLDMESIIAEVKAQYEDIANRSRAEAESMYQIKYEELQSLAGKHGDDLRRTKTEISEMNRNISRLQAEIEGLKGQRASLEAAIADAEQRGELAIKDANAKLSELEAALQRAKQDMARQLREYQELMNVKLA

[5] = target: T5, recombinant intact K8 (GST fusion protein) (human, UniProt P05787 2-483)
T5 construct: Alone, not complexed with K18; GST placed first as in pGEX vectors; also called full length K8; cytokeratin 8; not shown: glutathione S-transferase (GST) fusion partner, modified pGEX-2T vector
T5 chain: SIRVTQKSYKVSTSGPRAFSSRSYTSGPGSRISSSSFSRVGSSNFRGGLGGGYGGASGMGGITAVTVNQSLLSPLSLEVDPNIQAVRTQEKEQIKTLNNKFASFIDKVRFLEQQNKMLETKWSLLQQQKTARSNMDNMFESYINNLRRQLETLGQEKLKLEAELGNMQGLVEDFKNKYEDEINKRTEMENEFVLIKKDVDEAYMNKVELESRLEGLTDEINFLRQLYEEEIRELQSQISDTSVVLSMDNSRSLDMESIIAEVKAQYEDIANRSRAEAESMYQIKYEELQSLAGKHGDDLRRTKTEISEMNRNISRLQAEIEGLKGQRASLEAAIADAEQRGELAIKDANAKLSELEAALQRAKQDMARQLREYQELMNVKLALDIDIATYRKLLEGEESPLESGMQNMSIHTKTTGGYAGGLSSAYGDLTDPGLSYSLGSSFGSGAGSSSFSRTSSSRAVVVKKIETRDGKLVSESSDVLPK

[6] = target: T6, K8 (1-352)
T6 construct: not shown: N-terminal GST and its linker (modified pGEX-2T)
T6 chain: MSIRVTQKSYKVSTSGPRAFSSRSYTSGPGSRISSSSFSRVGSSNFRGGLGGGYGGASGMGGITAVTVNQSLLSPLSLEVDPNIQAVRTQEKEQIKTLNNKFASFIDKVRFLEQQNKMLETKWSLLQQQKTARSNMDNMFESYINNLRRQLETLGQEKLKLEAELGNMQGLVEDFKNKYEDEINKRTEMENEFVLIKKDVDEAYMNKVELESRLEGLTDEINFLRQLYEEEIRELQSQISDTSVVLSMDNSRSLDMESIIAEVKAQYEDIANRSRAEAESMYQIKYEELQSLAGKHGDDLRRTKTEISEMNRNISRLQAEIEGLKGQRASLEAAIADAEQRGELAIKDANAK

[7] = target: T7, K8 (1-129)
T7 construct: not shown: N-terminal GST carrier (modified pGEX-2T) and any linker
T7 chain: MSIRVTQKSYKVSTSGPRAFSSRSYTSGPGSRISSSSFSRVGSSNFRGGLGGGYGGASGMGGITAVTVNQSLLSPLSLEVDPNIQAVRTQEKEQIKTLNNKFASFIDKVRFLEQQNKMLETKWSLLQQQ

[8] = target: T8, K8 (1-342)
T8 construct: not shown: N-terminal GST and its linker (modified pGEX-2T)
T8 chain: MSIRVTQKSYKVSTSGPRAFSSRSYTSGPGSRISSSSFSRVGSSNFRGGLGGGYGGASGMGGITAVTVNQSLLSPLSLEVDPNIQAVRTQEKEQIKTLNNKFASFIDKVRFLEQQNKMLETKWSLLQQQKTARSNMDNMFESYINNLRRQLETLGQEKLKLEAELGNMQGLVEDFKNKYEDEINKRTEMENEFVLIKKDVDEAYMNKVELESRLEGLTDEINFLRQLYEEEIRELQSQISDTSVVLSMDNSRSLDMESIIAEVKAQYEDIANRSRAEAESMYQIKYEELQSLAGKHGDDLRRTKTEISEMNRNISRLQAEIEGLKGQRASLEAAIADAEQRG

B1: human monoclonal IgM antibody COU-1 (antibody, V domains shown)
VH: GAEVKKPGASVKVSCKASDYTFSSYYMHWVRQAPGQGLEWMGIINPSGGSTSYAQKFQGRVTMTRDTSTNTVYMELSSLRSEDTAVYYCARDQVVVAATLSNYGMDVWGQGTTVTVSS
VL: ELTQSPGTLSLSPGERATLSCRASQSVSSSYLAWYQQKPGQAPRLLIYDASNRATGIPARFSGSGSGTDFTLTISSLEPEDFAVYYCQQGTNWGIAFGQGTRLDIKR
notes: Human IgM with kappa light chain, secreted by hybridoma B9165 (ECACC 87040201), purified from culture supernatant; also called HMab COU-1; HuMab COU-1
Does B1 bind [1]?
Result: no binding (tested: 5 µg/ml COU-1 (P-0279))

Does B1 bind [2]?
Result: no binding (tested: 5 µg/ml COU-1 (P-0279))

Does B1 bind [3]?
Result: no binding (tested: 5 µg/ml COU-1 (P-0279))

Does B1 bind [4]?
Result: no binding (tested: 5 µg/ml COU-1 (P-0279))

Does B1 bind [5]?
Result: no binding (tested: 5 µg/ml COU-1 (P-0279))

Does B1 bind [6]?
Result: no binding (tested: 5 µg/ml COU-1 (P-0279))

Does B1 bind [7]?
Result: no binding (tested: 5 µg/ml COU-1 (P-0279))

Does B1 bind [8]?
Result: no binding (tested: 5 µg/ml COU-1 (P-0279))
